Experiment [1] deals with T1, recombinant DbpA full length protein (without signal sequence), Borrelia burgdorferi decorin-binding protein A (Borrelia burgdorferi, UniProt O50917 30-191).
T1 construct: also called DpbA; DbpA antigen
T1 sequence: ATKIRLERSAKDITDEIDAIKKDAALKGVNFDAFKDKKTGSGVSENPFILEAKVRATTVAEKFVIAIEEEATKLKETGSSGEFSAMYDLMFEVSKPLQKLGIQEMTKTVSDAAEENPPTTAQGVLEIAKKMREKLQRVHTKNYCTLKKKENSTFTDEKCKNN
As to the kind of experiment: Biacore SPR (summary table). On the technique in general: SPR reads the build-up and loss of mass on a sensor chip optically.

Experiment [2] has as its target T1, recombinant DbpA full length protein …. In words: Biacore SPR, supernatant over DbpA chip.
For experiment [3] the target is unchanged. As to the kind of experiment: Octet BLI, DbpA 100 nM (summary table). Background: In BLI a coated tip is dipped into the sample, and binding shifts an interference pattern.
The target is the same in experiment [4]. In words: Octet BLI, mAb on anti-mIgG Fc sensor, DbpA 100 nM.
For experiment [5] the target is unchanged. As to the kind of experiment: Biacore SPR, DbpA on CM5 chip.

B1: MAb 6G8 (mouse hybridoma monoclonal antibody) (antibody)
heavy: QVQLQQPGAELVKPGASVKLSCKASGYTFTRYWMYWVKQRPGRGLEWIGRLDPNSGVTKYNEKFKSKATLTVDKSSSTAYMQLSSLTSEDSAVYYCVRDDSWYFDVWGTGTTVTVSSAKTTPPSVYPLAPGSAAQTNSMVTLGCLVKGYFPEPVTVTWNSGSLSSGVHTFPAVLQSDLYTLSSSVTVPSSTWPSQTVTCNVAHPASSTKVDKKIVPRDCGCKPCICTVPEVSSVFIFPPKPKDVLTITLTPKVTCVVVDISKDDPEVQFSWFVDDVEVHTAQTKPREEQINSTFRSVSELPIMHQDWLNGKEFKCRVNSAAFPAPIEKTISKTKGRPKAPQVYTIPPPKEQMAKDKVSLTCMITNFFPEDITVEWQWNGQPAENYKNTQPIMDTDGSYFVYSKLNVQKSNWEAGNTFTCSVLHEGLHNHHTEKSLSLSPGK
light: EIQMTQSPSSMSASLGDRITITCQATQDIVKNLNWYQQKPGKPPSFLIYYATELAEGVPSRFSGSGSGSDYSLTINNLESQDFADYFCLQFYAFPLTFGAGTKLELRRADAAPTVSIFPPSSEQLTSGGASVVCFLNNFYPRDINVKWKIDGSERQNGVLNSWTDQDSKDSTYSMSSTLTLTKDEYERHNSYTCEATHKTSTSPIVKSFNRGEC
notes: Mouse IgG1 kappa, tested as hybridoma culture supernatant; copies: 2 + 2
What is called Kd is the constant that tells how readily two partners part at equilibrium. By koff is commonly meant the rate constant with which the complex falls apart. As usually defined, the kon is the rate constant with which the complex forms. Turning to B1, the equilibrium dissociation constant (Kd) was found to be 0.25 pM in experiment [1], 0.25 pM in experiment [2], 976 pM in experiment [3] and 976 pM in experiment [4]. The results for the off-rate (koff) in experiment [2], in experiment [3] and in experiment [4] were 5e-08 s⁻¹, 0.000977 s⁻¹ and 0.000977 s⁻¹, respectively. The on-rate constant (kon) in experiment [2] turned out to be 200000 M⁻¹ s⁻¹; in experiment [3], 1e+06 M⁻¹ s⁻¹; in experiment [4], 1e+06 M⁻¹ s⁻¹.

B2: 6G8 chimeric IgM (antibody)
heavy: QVQLQQPGAELVKPGASVKLSCKASGYTFTRYWMYWVKQRPGRGLEWIGRLDPNSGVTKYNEKFKSKATLTVDKSSSTAYMQLSSLTSEDSAVYYCVRDDSWYFDVWGTGTTVTVSSAKTTPPSVYPLAPGSAAQTNSMVTLGCLVKGYFPEPVTVTWNSGSLSSGVHTFPAVLQSDLYTLSSSVTVPSSTWPSQTVTCNVAHPASSTKVDKKILPVIAELPPKVSVFVPPRDGFFGNPRKSKLICQATGFSPRQIQVSWLREGKQVGSGVTTDQVQAEAKESGPTTYKVTSTLTIKESDWLSQSMFTCRVDHRGLTFQQNASSMCVPDQDTAIRVFAIPPSFASIFLTKSTKLTCLVTDLTTYDSVTISWTRQNGEAVKTHTNISESHPNATFSAVGEASICEDDWNSGERFTCTVTHTDLPSPLKQTISRPKGVALHRPDVYLLPPAREQLNLRESATITCLVTGFSPADVFVQWMQRGQPLSPEKYVTSAPMPEPQAPGRYFAHSILTVSEEEWNTGETYTCVVAHEALPNRVTERTVDKSTGKPTLYNVSLVMSDTAGTCY
light: EIQMTQSPSSMSASLGDRITITCQATQDIVKNLNWYQQKPGKPPSFLIYYATELAEGVPSRFSGSGSGSDYSLTINNLESQDFADYFCLQFYAFPLTFGAGTKLELRRADAAPTVSIFPPSSEQLTSGGASVVCFLNNFYPRDINVKWKIDGSERQNGVLNSWTDQDSKDSTYSMSSTLTLTKDEYERHNSYTCEATHKTSTSPIVKSFNRGEC
notes: Heavy chain is mouse VH-CH1 plus human IgM mu chain CH2-4; also called 6G8 chimera; 6G8 (26394.1.a)
As to B2, in experiment [5], the dissociation constant (Kd) stood at 1.96 pM, the koff stood at 2.45e-05 s⁻¹ and the kon worked out at 1.25e+07 M⁻¹ s⁻¹.

B3: MAb 8C10 (mouse hybridoma monoclonal antibody) (antibody)
heavy: QVQLQQSGAELMKPGASVKLSCKAAGYTFTDYWIEWVKQRPGHGLEWIGEILPGSGSTKDNERFKGKATFTADTSSNTAYMQLSSLTTEDSAIYYCARREWGYYFDYWGQGTTLTVSSAKTTPPSVYPLAPGSAAQTNSMVTLGCLVKGYFPEPVTVTWNSGSLSSGVHTFPAVLQSDLYTLSSSVTVPSSTWPSQTVTCNVAHPASSTKVDKKIVPRDCGCKPCICTVPEVSSVFIFPPKPKDVLTITLTPKVTCVVVDISKDDPEVQFSWFVDDVEVHTAQTKPREEQINSTFRSVSELPIMHQDWLNGKEFKCRVNSAAFPAPIEKTISKTKGRPKAPQVYTIPPPKEQMAKDKVSLTCMITNFFPEDITVEWQWNGQPAENYKNTQPIMDTDGSYFVYSKLNVQKSNWEAGNTFTCSVLHEGLHNHHTEKSLSLSPGK
light: DIVMTQSHKFMSTSVGDRVSITCKASQDVSTAVAWYQQKPGQSPKLLIYWASTRHTGVPDRFTGSGSGTDYTLTISSVQAEDLALYYCQQHYSTPYTFGGGTKLEIKRADAAPTVSIFPPSSEQLTSGGASVVCFLNNFYPRDINVKWKIDGSERQNGVLNSWTDQDSKDSTYSMSSTLTLTKDEYERHNSYTCEATHKTSTSPIVKSFNRGEC
notes: Mouse IgG (gamma/kappa), tested as hybridoma culture supernatant; Signal peptides are positions 1-19 (heavy) and 1-20 (light); copies: 2 + 2
For B3, the equilibrium dissociation constant (Kd) is 1.2 pM in experiment [1], 1.2 pM in experiment [2], less than 1 pM in experiment [3] and less than 1 pM in experiment [4]. The koff was 1.3e-07 s⁻¹ in experiment [2], less than 1e-07 s⁻¹ in experiment [3] and less than 1e-07 s⁻¹ in experiment [4]. Further, the values for the kon in experiment [2], in experiment [3] and in experiment [4] were 100000 M⁻¹ s⁻¹, 356000 M⁻¹ s⁻¹ and 356000 M⁻¹ s⁻¹, respectively.

Values taken from patent US20200062832A1 (QUIDEL, published 2020).
